System: small intestinal immune cells
Test: Droplet-based scRNA-seq of small intestinal immune cells (LP and PP), OVA vs PBS, clustering and differential expression
Assay type: in vivo, mouse
Conditions: cluster ID 4, PP
From the text: To comprehensively characterize small intestinal immune cells, Applicants generated scRNA-Seq profiles for 58,067 immune cells collected from lamina propria (LP) and Peyer's patch (PP) regions at steady state and after induction of a type 2 inflammatory reaction to ovalbumin (OVA) (Brandt et al., 2003) (FIGS. 1A and 8A). To ensure sufficient representation of rare cells, Applicants combined a normalization strategy—removing by flow sorting either a portion of IgD+ naïve B cells, which are the most abundant cell type in PPs, or all CD19+ and CD3+ T cells (FIG. 8B, Methods)—with profiling of a sufficiently large number of cells number (P>0.99 to recover at least 15 cells from each cluster, Methods) by massively parallel scRNA-seq (Haber et al., 2017) (Methods). Applicants obtained 36,797 and 21,270 high quality cells passing initial filtering (Methods) from PP and LP regions, respectively.
Overall, Applicants annotated 27 cell subsets across the two compartments, spanning T cells, B cells, ILCs, dendritic cells (DCs), myeloid cells and stromal cells, in frequencies ranging from 0.07% to 14%. Briefly, Applicants first partitioned the cells from the PP regions by unsupervised clustering (Methods) into 46 clusters, retained the 97% of cells that were robustly assigned cell identities in each cluster (Methods), assigned the cells from the LP regions to the 46 clusters using a classifier (Methods), and visualized the data with scvis (Ding et al., 2018), a deep generative model-based method (FIGS. 1B and 8C, Methods). Next, Applicants identified genes that were differentially expressed between the cells in each cluster and the remaining cells (Table 1, Methods), as well as between pairs of clusters (Table 2), to elucidate identities of similar cell types/states. Applicants excluded from downstream analysis clusters mostly consisting of contaminants from epithelium, likely doublets, or cells with a small number of Unique Molecular Identifiers (UMIs) (FIGS. 1C and 8D), or lacking distinct markers (Methods). Altogether, Applicants retained 27 clusters spanning 85% of the cells and each associated with distinct marker genes (FIG. 8E, Methods).
To induce allergic reaction to OVA, 6 to 7 weeks old mice were sensitized twice, two weeks apart, with 50 μg of OVA plus 1 mg of aluminum potassium sulfate adjuvant via intraperitoneal injection. Two weeks later, mice were orally administered with 50 mg of OVA on every other day for a total of five times. 1 μg of α-CGRP peptide was administered simultaneously when indicated. Mice were deprived of food for 3-4 hours in cages with wood chip bedding for limiting antigen degradation in the stomach before each intragastric challenge.
Isolation of cells from Peyer's patches (PPs). Peyer's patches (PPs) were carefully dissected from the small intestine under a stereo microscope using a fine scissor, pierced once with a fine forcep. Tissues were digested in freshly made digestion buffer (RPMI-1640 containing 100 μg/ml Liberase™ and 50 μg/ml DNase I at 37° C. on a roto-mixer. After 15 min, tissues were very gently mixed using a 1 ml pipette. The supernatant was collected and added to ice-cold MACS buffer (pH 7.4; PBS plus 2% FCS and 2 mM EDTA). Pre-warmed (37° C.) fresh digestion buffer was added to the remaining tissues. After rotation at 37° C. for 15 min, the mixture was vigorously mixed using a 1 ml pipette for 1 min. Supernatants from the two steps were combined and passed through 70 μm filters and stained for FACS (below).
Isolation of cells from the lamina propria (LP). The small intestines were opened longitudinally and washed in ice-cold PBS. For scRNA-seq, roughly 0.5 cm of fragments from each of the distal, middle and proximal regions without visible PPs were collected. Epithelial cells were dissociated by tissue rotation in pre-warmed (37° C.) PBS containing 10 mM EDTA at 37° C. for 15 min, followed by additional incubation on ice for 15 min. Tissues were then shaken vigorously. […]

B1: OVA (protein, UniProt P01012 2-386, looked up)
Ovalbumin: GSIGAASMEFCFDVFKELKVHHANENIFYCPIAIMSALAMVYLGAKDSTRTQINKVVRFDKLPGFGDSIEAQCGTSVNVHSSLRDILNQITKPNDVYSFSLASRLYAEERYPILPEYLQCVKELYRGGLEPINFQTAADQARELINSWVESQTNGIIRNVLQPSSVDSQTAMVLVNAIVFKGLWEKAFKDEDTQAMPFRVTEQESKPVQMMYQIGLFRVASMASEKMKILELPFASGTMSMLVLLPDEVSGLEQLESIINFEKLTEWTSSNVMEERKIKVYLPRMKMEEKYNLTSVLMAMGITDVFSSSANLSGISSAESLKISQAVHAAHAEINEAGREVVGSAEAGVDAASVSEEFRADHPFLFCIKHIATNAVLFFGRCVSP
  H2-T23: percentage of expressing cells in OVA-treated group: 0.264
  Herpud1: percentage of expressing cells in OVA-treated group: 0.33
  Icos: percentage of expressing cells in OVA-treated group: 0.236
  Il2ra: percentage of expressing cells in OVA-treated group: 0.457
  Il18r1: percentage of expressing cells in OVA-treated group: 0.605
  Irf2: percentage of expressing cells in OVA-treated group: 0.306
  Irs2: percentage of expressing cells in OVA-treated group: 0.149
  Itgav: percentage of expressing cells in OVA-treated group: 0.175
  Klf13: percentage of expressing cells in OVA-treated group: 0.417
  Klrk1: percentage of expressing cells in OVA-treated group: 0.133
  Leng9: percentage of expressing cells in OVA-treated group: 0.128
  Map3k14: percentage of expressing cells in OVA-treated group: 0.133
  Mast4: percentage of expressing cells in OVA-treated group: 0.467
  Mbnl2: percentage of expressing cells in OVA-treated group: 0.162
  Minos1: percentage of expressing cells in OVA-treated group: 0.768
  Morf4l2: percentage of expressing cells in OVA-treated group: 0.317
  Neat1: percentage of expressing cells in OVA-treated group: 0.502
  Nedd8: percentage of expressing cells in OVA-treated group: 0.781
  Plekhg1: percentage of expressing cells in OVA-treated group: 0.231
  Ppp1r16b: percentage of expressing cells in OVA-treated group: 0.302
  Ppp2ca: percentage of expressing cells in OVA-treated group: 0.336
  Ptger2: percentage of expressing cells in OVA-treated group: 0.299
  Ptpn7: percentage of expressing cells in OVA-treated group: 0.337
  Raf1: percentage of expressing cells in OVA-treated group: 0.232
  Ramp3: percentage of expressing cells in OVA-treated group: 0.224
  Rassf5: percentage of expressing cells in OVA-treated group: 0.31
  Rcn2: percentage of expressing cells in OVA-treated group: 0.258
  Rel: percentage of expressing cells in OVA-treated group: 0.19
  Rgs1: percentage of expressing cells in OVA-treated group: 0.498
  Rgs3: percentage of expressing cells in OVA-treated group: 0.282
  Rnf19b: percentage of expressing cells in OVA-treated group: 0.427
  Rpa3: percentage of expressing cells in OVA-treated group: 0.175
  S100a6: percentage of expressing cells in OVA-treated group: 0.603
  S100a10: percentage of expressing cells in OVA-treated group: 0.866
  Saraf: percentage of expressing cells in OVA-treated group: 0.557
  Sat1: percentage of expressing cells in OVA-treated group: 0.744
  Scn1b: percentage of expressing cells in OVA-treated group: 0.314
  Sec11a: percentage of expressing cells in OVA-treated group: 0.376
  Serpina3g: percentage of expressing cells in OVA-treated group: 0.587
  Serpinb6b: percentage of expressing cells in OVA-treated group: 0.2
  Ssna1: percentage of expressing cells in OVA-treated group: 0.294
  Taf7: percentage of expressing cells in OVA-treated group: 0.144
  Taf10: percentage of expressing cells in OVA-treated group: 0.297
  Tagap: percentage of expressing cells in OVA-treated group: 0.461
  Tcrg-C1: percentage of expressing cells in OVA-treated group: 0.36
  Tgoln1: percentage of expressing cells in OVA-treated group: 0.286
  Timm13: percentage of expressing cells in OVA-treated group: 0.592
  Tnf: percentage of expressing cells in OVA-treated group: 0.245
  Trim8: percentage of expressing cells in OVA-treated group: 0.223
  Trps1: percentage of expressing cells in OVA-treated group: 0.17
  Tsc22d3: percentage of expressing cells in OVA-treated group: 0.489
  Tspan32: percentage of expressing cells in OVA-treated group: 0.395
  Ttc19: percentage of expressing cells in OVA-treated group: 0.152
  Tuba4a: percentage of expressing cells in OVA-treated group: 0.156
  Tubb4b: percentage of expressing cells in OVA-treated group: 0.347
  Txk: percentage of expressing cells in OVA-treated group: 0.529
  Vegfa: percentage of expressing cells in OVA-treated group: 0.131
  VgIl4: percentage of expressing cells in OVA-treated group: 0.338
  Zc3hav1: percentage of expressing cells in OVA-treated group: 0.145
  Zfand5: percentage of expressing cells in OVA-treated group: 0.252
OVA vs PBS
  1600014C10Rik: LN (average fold change): 0.467
  2010300C02Rik: LN (average fold change): 0.310
  2310001H17Rik: LN (average fold change): 0.484
  4921524J17Rik: LN (average fold change): 0.531
  Alyref: LN (average fold change): −0.564
  Amd1: LN (average fold change): −0.353
  Asb2: LN (average fold change): 0.320
  Azin1: LN (average fold change): −0.472
  Bin3: LN (average fold change): 0.452
  Bzw1: LN (average fold change): −0.190
  Cacybp: LN (average fold change): 0.291
  Cd69: LN (average fold change): −0.153
  Cdkn1a: LN (average fold change): −0.202
  Clec2d: LN (average fold change): 0.489
  Cwc25: LN (average fold change): −0.463
